Drawing on publication PMC10938568, this text covers Kd estimated from the kinetics and half-life for 1 substance.

This experiment addresses GST-PreScission-p62 FIR 4P (human) (UniProt Q13501). Kind of experiment: SPR. (In SPR one partner is held on a chip, and binding of the other changes the refractive index at the surface.)

The term half-life denotes the time in which the quantity being followed falls by half. The low end stands for rapid decline, the high end for slow decline. As for “His8-TEV-LC3B (1 to 125) (from UniProt Q9GZQ8 1-120) (natural protein)”, the Kd estimated from the kinetics was 80 nM and the half-life was determined as 20 min.
